Article PMC8885657, “HPV infection alters vaginal microbiome through down-regulating host mucosal innate peptides used by Lactobacilli as amino acid sources” (Nature Communications, 2022)

B1: HD-5: epithelial member of the defensin family, host defense peptide (PeptaNova) (peptide, UniProt Q01523 20-94, looked up)
Defensin alpha 5: ESLQERADEATTQKQSGEDNQDLAISFAGNGLSALRTSGSQARATCYCRTGRCATRESLSGVCEISGRLYRLCCR

Columns and labels:
[1] = tested on: murine vaginal microbiota; experiment: 16S-based metagenomics of cervico-vaginal lavage samples; type: in vivo, mouse; details: FVB/n mice treated (n=12) or not (n=8), subcutaneous implant 1-2 µg/24h, 12 weeks
Excerpt: FVB/n mice expressing HPV16 under the control of the keratin 14 promoter (K14-HPV16 transgenic mice) were obtained from the National Cancer Institute Mouse Repository. Given that (pre)cancer development within the lower genital tract has been previously shown to be hormone-dependent in this model[75],[76], 6 to 8-week-old female mice (n = 12 per condition) were subcutaneously implanted with a Belma’s E2 implant (E2-M/90, Belma Technologies, Liege, Belgium), allowing reproducible long-term release of 17β-estradiol (1–2 µg/24 h) for 90 days[77]. A similar procedure was performed with control (FVB/n) mice. […]
Mice were randomly distributed in cages and housed under standard conditions [12 h light/12 h dark cycle, ad libitum access to food and water, constant temperature (19–21 °C) and humidity (40–50%)] in the GIGA-Mouse facility platform (University of Liege) during the entire course of the study. […] Seven µl from each samples were spread on a glass slide, fixed/stained using Diff-Quick reagents (Medion Diagnostics, Düdingen, Switzerland) and the estrous cycle stage was determined using established criteria.
DNA was isolated from cervico-vaginal lavage samples using NucleoSpin Tissue kit (Macherey Nagel, Düren, Germany). […] Of note, 7 random nucleotides were added to the 5′ region of forward primer to increase complexity and, therefore, improve sequence read quality. […]

[2] = tested on: Gardnerella vaginalis; experiment: Antimicrobial assay (surviving colonies, CFU count); type: cell-based; details: peptide 1–10 µg/ml, 5 × 10^4 CFU/ml, 10 mM sodium phosphate buffer, 6 h, 37 °C; plated on Columbia Blood agar; n = 5
Description: (§1) Bacterial strains Lactobacillus crispatus DSM 20356, Lactobacillus iners CIP 105923 and Garnerella vaginalis CCUG 43336 were kindly provided by the Department of Clinical Microbiology at University Hospital Center of Liege. Lactobacillus jensenii LMG 6414 was obtained from BCCM/LMG Bacteria Collection (University of Gent, Belgium). Log-phase bacteria were grown on Columbia agar with 5% sheep blood (Becton Dickinson, Franklin Lakes, NJ, USA) at 37 °C in a humidified CO2 atmosphere (Lactobacilli) or in anaerobic jars (G. vaginalis). To analyze the antimicrobial effect of innate peptides expressed by vaginal/cervical mucosa, 5 × 10^4 colony-forming unit (CFU)/ml were mixed with different peptides (concentration range: 1–10 µg/ml) in 10 mM sodium phosphate buffer (SPB) (final volume 100 µl) and incubated for 45 min to 9 h at 37 °C. Where indicated, the peptides were incubated with 2 mM dithiothreitol (DTT) (Invitrogen, Carlsbad, CA, USA) for 30 min at 37 °C before adding the bacteria. In indicated experiments, incubation was carried out in potassium phosphate buffer (KPB) (pH: 7.4, 10 mM). The following peptides were tested: HβD1 (PeptaNova, Sandhausen, Germany), HβD2 (PeptaNova), HβD3 (PeptaNova), HβD4 (PeptaNova), HD-5 (PeptaNova), HD-6 (PeptaNova), elafin (PeptaNova), S100A7 (Abnova, Taipei City, Taiwan) and SLPI (R&D Systems, Minneapolis, MI, USA). Bacterial suspensions were then plated on Columbia Blood agar plates for 24–48 h to determine CFU. High-resolution images for each condition were taken. Colony detection and counts were finally performed using ImageJ software (NIH, Bethesda, MD, USA) and verified by manual counting.

[3] = tested on: Lactobacillus iners CIP 105923; experiment: as above; type: cell-based; details: peptide 1–10 µg/ml, 5 × 10^4 CFU/ml, 10 mM sodium phosphate buffer, 6 h, 37 °C; plated on Columbia Blood agar; n = 3
Description: as §1

[4] = tested on: Lactobacillus jensenii LMG 6414; experiment: as above; type: cell-based; details: peptide 1–10 µg/ml, 5 × 10^4 CFU/ml, 10 mM sodium phosphate buffer, 6 h, 37 °C; plated on Columbia Blood agar; n = 3
Description: as §1

[5] = tested on: Lactobacillus crispatus DSM 20356; experiment: as above; type: cell-based; details: peptide 1–10 µg/ml, 5 × 10^4 CFU/ml, 10 mM sodium phosphate buffer, 6 h, 37 °C; plated on Columbia Blood agar; n = 3
Description: as §1

Molecule	composition of murine vaginal microbiota (α- and β-diversity, richness, evenness) [1]	effect on bacterial growth/survival (percentage of surviving colonies) [2]	effect on bacterial growth/survival (percentage of surviving colonies) [3]	effect on bacterial growth/survival (percentage of surviving colonies) [4]	effect on bacterial growth/survival (percentage of surviving colonies) [5]
C[C@]12CC[C@@H]3c4ccc(O)cc4CC[C@H]3[C@@H]1CC[C@@H]2O [17β-estradiol]	not altered				
B1		inhibit the growth	inhibit the growth	inhibit the growth	inhibit the growth
